Experimental data from the Human Domainome abundance scans (Beltran et al. 2025).
± gives the uncertainty stated by the source.

B1: Zinc finger MYM-type protein 6, residues 427 to 504; numbered along this chain, O95789 (parent)
chain: KLKCQHCNHLFATKPELLFYKGKMFLFCGKNCSDEYKKKNKVVAMCDYCKLQKIIKETVRFSGVDKPFCSEVCKFLSA

Variants of: B1
Assay: abundance fitness (aPCA) (normalised: wild type 0, dead -1); higher = more abundant; growth selection in yeast, the domain comes from the species named
Settings: Homo sapiens

Variant	abundance fitness
KLKCQHCNHLFATKPELLFYKGKMFLFCGKNCSDEYKKKNKVVAMCDECKLQKIIKETVRFSGVDKPFCSEVCKFLSA [Y48E]	-0.861 ± 0.28
KLKCQHCNHLFATKPELLFYKGKMFLFCGKNCSDEYKKKNKVVAMCDQCKLQKIIKETVRFSGVDKPFCSEVCKFLSA [Y48Q]	0.059 ± 0.14
KLKCQHCNHLFATKPELLFYKGKMFLFCGKNCSDEYKKKNKVVALCDYCKLQKIIKETVRFSGVDKPFCSEVCKFLSA [M45L]	-0.671 ± 0.18
KLKCQHCNHLFATKPELLFYKGKMFLFCGKNCSDEYKKKNKVVASCDYCKLQKIIKETVRFSGVDKPFCSEVCKFLSA [M45S]	-0.073 ± 0.094
KLKCQHCNHLFATKPELLFYKGKMFLFCGKNCSDEYKKKNKVVAYCDYCKLQKIIKETVRFSGVDKPFCSEVCKFLSA [M45Y]	0.35 ± 0.14
KLKCQHCNHLFATKPELLFYKGKMFLFCGKNCSDEYKKKNKVVAPCDYCKLQKIIKETVRFSGVDKPFCSEVCKFLSA [M45P]	-0.328 ± 0.16
KLKCQHCNHLFATKPELLFYKGKMFLFCGKNCSDEYKKKNKVVAVCDYCKLQKIIKETVRFSGVDKPFCSEVCKFLSA [M45V]	-0.145 ± 0.096
KLKCQHCNHLFATKPELLFYKGKMFLFCGKNCSDEYKKKNKVVAKCDYCKLQKIIKETVRFSGVDKPFCSEVCKFLSA [M45K]	-0.237 ± 0.18
KLKCQHCNHLFATKPELLFYKGKMFLFCGKNCSDEYKKKNKVVARCDYCKLQKIIKETVRFSGVDKPFCSEVCKFLSA [M45R]	-0.062 ± 0.073
KLKCQHCNHLFATKPELLFYKGKMFLFCGKNCSDEYKKKNKVVAWCDYCKLQKIIKETVRFSGVDKPFCSEVCKFLSA [M45W]	-0.842 ± 0.25
KLKCQHCNHLFATKPELLFYKGKMFLFCGKNCSDEYKKKNKVVAMCDYAKLQKIIKETVRFSGVDKPFCSEVCKFLSA [C49A]	-0.604 ± 0.11
KLKCQHCNHLFATKPELLFYKGKMFLFCGKNCSDEYKKKNKVVAMCDYWKLQKIIKETVRFSGVDKPFCSEVCKFLSA [C49W]	-1.05 ± 0.22
KLKCQHCNHLFATKPELLFYKGKMFLFCGKNCSDEYKKKNKVVAMCDYDKLQKIIKETVRFSGVDKPFCSEVCKFLSA [C49D]	-0.718 ± 0.14
KLKCQHCNHLFATKPELLFYKGKMFLFCGKNCSDEYKKKNKVVAMCDYGKLQKIIKETVRFSGVDKPFCSEVCKFLSA [C49G]	-0.54 ± 0.083
KLKCQHCNHLFATKPELLFYKGKMFLFCGKNCSDEYKKKNKVVAMCDYMKLQKIIKETVRFSGVDKPFCSEVCKFLSA [C49M]	-0.677 ± 0.23
KLKCQHCNHLFATKPELLFYKGKMFLFCGKNCSDEYKKKNKVVAMCDYTKLQKIIKETVRFSGVDKPFCSEVCKFLSA [C49T]	-0.54 ± 0.32
KLKCQHCNHLFATKPELLFYKGKMFLFCGKNCSDEYKKKNKVVAMCDYEKLQKIIKETVRFSGVDKPFCSEVCKFLSA [C49E]	-0.64 ± 0.18
KLKCQHCNHLFATKPELLFYKGKMFLFCGKNCSDEYKKKNKVVAMCDYQKLQKIIKETVRFSGVDKPFCSEVCKFLSA [C49Q]	0.123 ± 0.19

Variant	abundance fitness
KLKCQHCNHLFATKPELLFYKGKMFLFCGKNCSDEYKKKNKVVAMCDYSKLQKIIKETVRFSGVDKPFCSEVCKFLSA [C49S]	-0.489 ± 0.13
KLKCQHCNHLFATKPELLFYKGKMFLFCGKNCSDEYKKKNKVVAMCDYKKLQKIIKETVRFSGVDKPFCSEVCKFLSA [C49K]	-0.433 ± 0.32
KLKCQHCNHLFATKPELLFYKGKMFLFCGKNCSDEYKKKNKVVAMCDYRKLQKIIKETVRFSGVDKPFCSEVCKFLSA [C49R]	-0.242 ± 0.089
KLKCQHCNHLFATKPELLFYKGKMFLFCGKNCSDEYKKKNKVVAMCDYVKLQKIIKETVRFSGVDKPFCSEVCKFLSA [C49V]	-1.07 ± 0.17
KLKCQHCNHLFATKPELLFYKGKMFLFCGKNCSDEYKKKNKVVAMCIYCKLQKIIKETVRFSGVDKPFCSEVCKFLSA [D47I]	-0.306 ± 0.46
KLKCQHCNHLFATKPELLFYKGKMFLFCGKNCSDEYKKKNKVVAMCHYCKLQKIIKETVRFSGVDKPFCSEVCKFLSA [D47H]	0.26 ± 0.23
KLKCQHCNHLFATKPELLFYKGKMFLFCGKNCSDEYKKKNKVVAMCQYCKLQKIIKETVRFSGVDKPFCSEVCKFLSA [D47Q]	-0.106 ± 0.2
KLKCQHCNHLFATKPELLFYKGKMFLFCGKNCSDEYKKKNKVVAMCEYCKLQKIIKETVRFSGVDKPFCSEVCKFLSA [D47E]	-0.125 ± 0.13
KLKCQHCNHLFATKPELLFYKGKMFLFCGKNCSDEYKKKNKVVAMCRYCKLQKIIKETVRFSGVDKPFCSEVCKFLSA [D47R]	-0.394 ± 0.09
KLKCQHCNHLFATKPELLFYKGKMFLFCGKNCSDEYKKKNKVVAMCAYCKLQKIIKETVRFSGVDKPFCSEVCKFLSA [D47A]	-0.033 ± 0.087
KLKCQHCNHLFATKPELLFYKGKMFLFCGKNCSDEYKKKNKVVAMCLYCKLQKIIKETVRFSGVDKPFCSEVCKFLSA [D47L]	0.177 ± 0.066
KLKCQHCNHLFATKPELLFYKGKMFLFCGKNCSDEYKKKNKVVAMCCYCKLQKIIKETVRFSGVDKPFCSEVCKFLSA [D47C]	-0.16 ± 0.16
KLKCQHCNHLFATKPELLFYKGKMFLFCGKNCSDEYKKKNKVVAMCVYCKLQKIIKETVRFSGVDKPFCSEVCKFLSA [D47V]	-0.58 ± 0.1
KLKCQHCNHLFATKPELLFYKGKMFLFCGKNCSDEYKKKNKVVAMCTYCKLQKIIKETVRFSGVDKPFCSEVCKFLSA [D47T]	-0.041 ± 0.15
KLKCQHCNHLFATKPELLFYKGKMFLFCGKNCSDEYKKKNKVVAMCWYCKLQKIIKETVRFSGVDKPFCSEVCKFLSA [D47W]	0.424 ± 0.072
KLKCQHCNHLFATKPELLFYKGKMFLFCGKNCSDEYKKKNKVVAMCNYCKLQKIIKETVRFSGVDKPFCSEVCKFLSA [D47N]	-0.327 ± 0.19
KLKCQHCNHLFATKPELLFYKGKMFLFCGKNCSDEYKKKNKVVAMCSYCKLQKIIKETVRFSGVDKPFCSEVCKFLSA [D47S]	0.311 ± 0.082
